According to patent US20200024330A1:

Experiments:
Experiment in all cases: cell-based or functional assay
[1] = target: HIV-1 JR-CSF Env G471A (HIV-1 (isolate JR-CSF)) (UniProt P20871)
[2] = target: HIV-1 Env of isolate NL43 (HIV-1)
[3] = target: HIV-1 Env of isolate 92WR024 (HIV-1)
[4] = target: HIV-1 JR-CSF Env L179A (HIV-1 (isolate JR-CSF)) (UniProt P20871)
[5] = target: HIV-1 Env of isolate 93IN905 (HIV-1)
[6] = target: HIV-1 Env of isolate MGRM-C-024 (HIV-1)
[7] = target: HIV-1 Env of isolate MGRM-C-010 (HIV-1)
[8] = target: HIV-1 JR-CSF Env L125A (HIV-1 (isolate JR-CSF)) (UniProt P20871)
[9] = target: HIV-1 Env of isolate MGRM-C-014 (HIV-1)
[10] = target: HIV-1 Env of isolate MGRM-AG-008 (CRF_AG), on pseudovirus (HIV-1)
[11] = target: HIV-1 Env of isolate MGRM-AG-005 (CRF_AG), on pseudovirus (HIV-1)
[12] = target: HIV-1 Env of isolate MGRM-A-008 (clade A), on pseudovirus (HIV-1)
[13] = target: HIV-1 JR-CSF Env N478A (HIV-1 (isolate JR-CSF)) (UniProt P20871)
[14] = target: HIV-1 Env of isolate CAAN.A2 (HIV-1)
[15] = target: HIV-1 Env of isolate MGRM-F1-022 (subtype F), on pseudovirus (HIV-1)
[16] = target: HIV-1 JR-CSF Env N134A (HIV-1 (isolate JR-CSF)) (UniProt P20871)
[17] = target: HIV-1 MGRM-A-010 envelope glycoprotein (Env) on pseudovirus (HIV-1)
[18] = target: HIV-1 MGRM-C-026 envelope glycoprotein (Env) on pseudovirus (HIV-1)
[19] = target: HIV-1 VLGCB3 Env (pseudovirus) (HIV-1)
[20] = target: HIV-1 Env of isolate MG RM-AG-009 (HIV-1)
[21] = target: HIV-1 MGRM-Chronic-B-011 Env (pseudovirus) (HIV-1)
[22] = target: HIV-1 93TH305 Env (pseudovirus) (HIV-1)
[23] = target: HIV-1 93IN905 Env (pseudovirus) (HIV-1)
[24] = target: HIV-1 Env of isolate MGRM-C-005 (pseudovirus) (HIV-1 isolate MGRM-C-005, subtype C)
[25] = target: HIV-1 MGRM-Chronic-B-017 Env (pseudovirus) (HIV-1)
[26] = target: HIV-1 Env of isolate MGRM-C-012 (pseudovirus) (HIV-1 isolate MGRM-C-012, subtype C)
[27] = target: HIV-1 CAAN.A2 Env (pseudovirus) (HIV-1)
[28] = target: HIV-1 Env of isolate MGRM-C-023 (pseudovirus) (HIV-1 isolate MGRM-C-023, subtype C)
[29] = target: HIV-1 Env of isolate MG RM-D-019 (subtype D) (HIV-1)
[30] = target: HIV-1 Env of isolate 97ZA012 (pseudovirus) (HIV-1 isolate 97ZA012, subtype C)
[31] = target: HIV-1 MGRM-Chronic-B-004 Env (pseudovirus) (HIV-1)

5114_A19 (PGT-128) (antibody)
Fold IC50 increase relative to wild-type [1]: 0.9 fold
IC50 [2]: > 50 µg/mL
neutralization IC50 [3]: > 50 µg/mL
Fold IC50 increase relative to wild-type [4]: 2.8 fold
IC50 [5]: 0.009 µg/mL
IC50 [6]: > 50 µg/mL
IC50 [7]: > 50 µg/mL
Fold IC50 increase relative to wild-type [8]: 2.9 fold
IC50 [9]: > 50 µg/mL
IC50, single-round pseudovirus neutralization [10]: 0.668 µg/mL
IC50, single-round pseudovirus neutralization [11]: 0.037 µg/mL
IC50, single-round pseudovirus neutralization [12]: > 50 µg/mL
Fold IC50 increase relative to wild-type [13]: 0.8 fold
IC50 [14]: 1.48 µg/mL
IC50, pseudovirus neutralization [15]: 4.54 µg/mL
Fold IC50 increase relative to wild-type [16]: 1.2 fold

5136_H01 (PGT-131) (antibody)
Fold IC50 increase relative to wild-type [1]: 1.2 fold
IC50 [2]: > 50 µg/mL
neutralization IC50 [3]: > 50 µg/mL
Fold IC50 increase relative to wild-type [4]: 4.8 fold
IC50 [5]: 0.177 µg/mL
IC50 [6]: > 50 µg/mL
IC50 [7]: > 50 µg/mL
Fold IC50 increase relative to wild-type [8]: 2.5 fold
IC50 [9]: > 50 µg/mL
IC50, single-round pseudovirus neutralization [10]: > 50 µg/mL
IC50, single-round pseudovirus neutralization [11]: 1.04 µg/mL
IC50, single-round pseudovirus neutralization [12]: > 50 µg/mL
Fold IC50 increase relative to wild-type [13]: 1 fold
IC50 [14]: > 50 µg/mL
IC50, pseudovirus neutralization [15]: > 50 µg/mL
Fold IC50 increase relative to wild-type [16]: 0.5 fold

5343_B08 (PGT-135) (antibody)
Fold IC50 increase relative to wild-type [1]: 3 fold
IC50 [2]: 8.03 µg/mL
neutralization IC50 [3]: > 50 µg/mL
Fold IC50 increase relative to wild-type [4]: 1.2 fold
IC50 [5]: 0.011 µg/mL
IC50 [6]: > 50 µg/mL
IC50 [7]: > 50 µg/mL
Fold IC50 increase relative to wild-type [8]: 0.9 fold
IC50 [9]: > 50 µg/mL
IC50, single-round pseudovirus neutralization [10]: > 50 µg/mL
IC50, single-round pseudovirus neutralization [11]: > 50 µg/mL
IC50, single-round pseudovirus neutralization [12]: > 50 µg/mL
Fold IC50 increase relative to wild-type [13]: 0.7 fold
IC50 [14]: 5.15 µg/mL
IC50, pseudovirus neutralization [15]: 0.964 µg/mL
Fold IC50 increase relative to wild-type [16]: 0.2 fold

5147_N06 (PGT-130) (antibody)
Fold IC50 increase relative to wild-type [1]: 0.8 fold
IC50 [2]: > 50 µg/mL
neutralization IC50 [3]: > 50 µg/mL
Fold IC50 increase relative to wild-type [4]: 2.4 fold
IC50 [5]: 0.02 µg/mL
IC50 [6]: > 50 µg/mL
IC50 [7]: > 50 µg/mL
IC50 (ug/ml), neutralizing activity [17]: 0.0054 µg/mL
Fold IC50 increase relative to wild-type [8]: 2.5 fold
IC50 [9]: > 50 µg/mL
IC50, single-round pseudovirus neutralization [10]: > 50 µg/mL
IC50 (ug/ml), neutralizing activity [18]: 0.0173 µg/mL
IC50, single-round pseudovirus neutralization [11]: 0.54 µg/mL
IC50, single-round pseudovirus neutralization [12]: > 50 µg/mL
Fold IC50 increase relative to wild-type [13]: 0.8 fold
IC50 [14]: > 50 µg/mL
IC50, pseudovirus neutralization [15]: > 50 µg/mL
Fold IC50 increase relative to wild-type [16]: 0.6 fold

5329_C19 (PGT-136) (antibody)
IC50 [2]: 27.7 µg/mL
neutralization IC50 [3]: > 50 µg/mL
IC50 [5]: 0.011 µg/mL
IC50 [6]: > 50 µg/mL
IC50 [7]: > 50 µg/mL
IC50 [9]: > 50 µg/mL
IC50, single-round pseudovirus neutralization [10]: > 50 µg/mL
IC50, single-round pseudovirus neutralization [11]: > 50 µg/mL
IC50, single-round pseudovirus neutralization [12]: > 50 µg/mL
IC50 [14]: > 50 µg/mL
IC50, pseudovirus neutralization [15]: 2.42 µg/mL

5141_B17 (PGT-126) (antibody)
IC50, pseudovirus neutralization [19]: 0.007 µg/mL
neutralization IC50 [20]: 0.03 µg/mL
Fold IC50 increase relative to wild-type [1]: 1.2 fold
IC50, pseudovirus neutralization [21]: 0.108 µg/mL
Fold IC50 increase relative to wild-type [4]: 2.6 fold
IC50, pseudovirus neutralization [22]: 0.013 µg/mL
IC50 (ug/ml), neutralizing activity [17]: 0.0033 µg/mL
IC50 [23]: 0.0194 µg/mL
IC50, pseudovirus neutralization [23]: 0.015 µg/mL
IC80 [23]: 0.0676 µg/mL
IC90 [23]: 0.14 µg/mL
IC95 [23]: 0.275 µg/mL
Fold IC50 increase relative to wild-type [8]: 1.2 fold
IC50 (µg/mL) neutralization [24]: 0.298 µg/mL
IC50, pseudovirus neutralization [25]: > 50 µg/mL
IC50 (µg/mL) neutralization [26]: 0.111 µg/mL
IC50, pseudovirus neutralization [27]: 0.273 µg/mL
IC50 (µg/mL) neutralization [28]: 0.065 µg/mL
IC50 (µg/mL), pseudovirus neutralization [29]: > 50 µg/mL
IC50 (ug/ml), neutralizing activity [18]: 0.0076 µg/mL
IC50 (µg/mL) neutralization [30]: 0.042 µg/mL
Fold IC50 increase relative to wild-type [13]: 1 fold
IC50, pseudovirus neutralization [31]: 0.01 µg/mL
Fold IC50 increase relative to wild-type [16]: 0.6 fold

5345_I01 (PGT-137) (antibody)
IC50 [2]: 17.4 µg/mL
neutralization IC50 [3]: > 50 µg/mL
IC50 [5]: 0.042 µg/mL
IC50 [6]: > 50 µg/mL
IC50 [7]: > 50 µg/mL
IC50 [9]: > 50 µg/mL
IC50, single-round pseudovirus neutralization [10]: > 50 µg/mL
IC50, single-round pseudovirus neutralization [11]: > 50 µg/mL
IC50, single-round pseudovirus neutralization [12]: > 50 µg/mL
IC50 [14]: > 50 µg/mL
IC50, pseudovirus neutralization [15]: 6.23 µg/mL

5123_A06 (PGT-125) (antibody)
IC50, pseudovirus neutralization [19]: 0.015 µg/mL
neutralization IC50 [20]: 0.026 µg/mL
Fold IC50 increase relative to wild-type [1]: 1 fold
IC50, pseudovirus neutralization [21]: 3.23 µg/mL
Fold IC50 increase relative to wild-type [4]: 1.3 fold
IC50, pseudovirus neutralization [22]: 0.008 µg/mL
IC50 (ug/ml), neutralizing activity [17]: 0.0025 µg/mL
neutralization IC50 [17]: 0.0055 µg/mL
neutralization IC80 [17]: 0.024 µg/mL
neutralization IC90 [17]: 0.0575 µg/mL
neutralization IC95 [17]: 0.131 µg/mL
IC50, pseudovirus neutralization [23]: 0.009 µg/mL
Fold IC50 increase relative to wild-type [8]: 1.6 fold
IC50 (µg/mL) neutralization [24]: 2.09 µg/mL
IC50, pseudovirus neutralization [25]: > 50 µg/mL
IC50 (µg/mL) neutralization [26]: > 50 µg/mL
IC50, pseudovirus neutralization [27]: 5.47 µg/mL
IC50 (µg/mL) neutralization [28]: 1.31 µg/mL
IC50 (µg/mL), pseudovirus neutralization [29]: 0.049 µg/mL
IC50 (ug/ml), neutralizing activity [18]: 0.0106 µg/mL
neutralization IC50 [18]: 0.0106 µg/mL
neutralization IC80 [18]: 0.035 µg/mL
neutralization IC90 [18]: 0.0705 µg/mL
neutralization IC95 [18]: 0.134 µg/mL
IC50 (µg/mL) neutralization [30]: 2.46 µg/mL
Fold IC50 increase relative to wild-type [13]: 1.5 fold
IC50, pseudovirus neutralization [31]: 0.007 µg/mL
Fold IC50 increase relative to wild-type [16]: 0.5 fold
